Test results published in patent US20100056445A1, “ADIPONECTIN FOR THE TREATMENT AND DIAGNOSIS OF ALBUMINURIA” (THOMAS JEFFERSON UNIVERSITY, priority 2006, published 2010).
Entries after “also recorded” stand apart in the source; their conditions may differ.

Legend:
AMPK [1] = test: AMPK activity (p-Thr172 AMPKα) in podocytes by immunoblotting and confocal microscopy; assay type: cell-based, mouse
Excerpt: Western immunoblotting: Total protein from mouse podocytes was solubilized in lysis buffer containing 1% Triton X-100, Protease Inhibitor Cocktail (Mini Complete Protease Inhibitor Cocktail, Roche, Germany), PMSF, and phosphatase inhibitors. Protein was resolved on SDS-PAGE and transferred to a nitrocellulose membrane (Bio-Rad, Hercules, Calif.) as previously described (29). The membrane was immunoblotted initially with rabbit anti mouse phospho-AMPKα (p-AMPKα) monoclonal antibody or with rabbit anti AMPKα monoclonal (Cell Signaling Technology, New England Bio Labs, Boston, Mass.). Subsequently membranes were blotted with a secondary donkey anti-rabbit antibody (Amersham Biosciences, Piscataway, N.J.) conjugated to horseradish peroxidase (HRP). […]
Immunohistochemistry: Immunocytochemistry was performed as described previously (30). […] Fluorescence pictures were obtained using confocal laser fluorescence microscope (LSM-510, Carl Zeiss, Jena, Germany). […] Quantitation of p-AMPKα positive cells was performed on 50 glomeruli from 4 mice in each group.
Immunohistochemistry: Immunocytochemistry was performed as described previously (30). […] Fluorescence pictures were obtained using confocal laser fluorescence microscope (LSM-510, Carl Zeiss, Jena, Germany). […] Quantitation of p-AMPKa positive cells was performed on 50 glomeruli from 4 mice in each group. […]

AMPK [2] = test: Glomerular AMPK activity (p-AMPKα immunostain) in adiponectin KO mouse kidney; assay type: in vivo; settings: adiponectin KO mice, adiponectin (gAd) treatment
Description: Immunohistochemistry: Immunocytochemistry was performed as described previously (30). Differentiated podocytes seeded on coverslips were serum-Starved overnight and globular adiponectin was added. After 24 hours of adiponectin introduction, cells were fixed in 3.7% paraformaldehyde. Incubation with primary antibody p-AMPKα at 1:50 dilution (Cell Signaling Technology) was performed in blocking solution at 4° C. overnight Cells were then incubated with secondary anti rabbit IgG conjugated to an immunofluorescent dye (Alexa 594, Invitrogen, Carisbad, Calif.) for 30 minutes at room temperature. Nuclear stain was performed with Hoechst 33342 (Invitrogen). Fluorescence pictures were obtained using confocal laser fluorescence microscope (LSM-510, Carl Zeiss, Jena, Germany). Immunostaining of paraffin-embedded mouse kidney was performed as described previously (26) with p-AMPKα (Thr172) rabbit monoclonal antibody (31). Quantitation of p-AMPKα positive cells was performed on 50 glomeruli from 4 mice in each group.
Immunohistochemistry: Immunocytochemistry was performed as described previously (30). […] Fluorescence pictures were obtained using confocal laser fluorescence microscope (LSM-510, Carl Zeiss, Jena, Germany). […] Quantitation of p-AMPKa positive cells was performed on 50 glomeruli from 4 mice in each group. […] Images were captured by confocal laser fluorescence microscope.

B1: adiponectin: 30 kDa adipocyte-secreted protein; in the first series of tests the recombinant globular domain was used, later gAd or fAd (protein, UniProt Q15848 19-244, looked up)
Adiponectin: ETTTQGPGVLLPLPKGACTGWMAGIPGHPGHNGAPGRDGRDGTPGEKGEKGDPGLIGPKGDIGETGVPGAEGPRGFPGIQGRKGEPGEGAYVYRSAFSVGLETYVTIPNMPIRFTKIFYNQQNHYDGSTGKFHCNIPGLYYFAYHITVYMKDVKVSLFKKDKAMLFTYDQYQENNVDQASGSVLLHLEVGDQVWLQVYGEGERNGLYADNDNDSTFTGFLLYHDTN
Q: What does the source list for B1?
A: AMPK activity (AMPKα phosphorylation on Thr-172) in podocytes (AMPK [1]; globular adiponectin 3 μg/ml, 24 h, serum-free, normal glucose): increased; Effect on the high glucose (HG) decrease of AMPK activity in podocytes (AMPK [1]; high glucose exposure plus adiponectin): prevented; also recorded: blocked; AMPK activity in glomerular podocytes (p-AMPKα positive cells per glomerulus) (AMPK [2]): improved; also recorded: increased
